# B1: hCoV-NL63 spike receptor-binding domain (domain or fragment)
# chain: QHTDINFTATASFGGSCYVCKPHQVNISLNGNTSVCVRTSHFSIRYIYNRVKSGSPGDSSWHIYLKSGTCPFSFSKLNNFQKFKTICFSTVEVPGSCNFPLEATWHYTSYTIVGALYVTWSEGNSITGVPYPVSGI
# Target: equine ACE2 peptidase domain (horse (Equus caballus), UniProt A0A9L0TPT7 19-615)
# Test: SPR
binder,measurement,value
B1,Kd,106 nM

# — paper PMC9341007 (Structure (London, England : 1993), 2022)
